From patent publication US5238920A, “Pulmonary surfactant protein fragments” (Abbott Laboratories, priority 1989, dated 1993) come the findings set out here.

Common to all, as to type: physicochemical
Data set [1] is described as follows: Dynamic surface tension versus compressed surface area, modified Wilhelmy balance-Langmuir trough. The following applies: 675 ug phospholipid on trough at 445 sq. cm, peptide 0.5 mg/ml (2% of solids) in DPPC:PG:PA lipids; for Surface tension, Maximum: maximum recorded during seven complete cycles; for Surface tension, Minimum: minimum recorded during seven complete cycles. An excerpt:
The dynamic surface tension lowering properties of the peptide/lipid admixtures were studied using a modified Wilhelmy surface Balance (Langmuir Trough). The instrument consists of an all Teflon trough and movable Teflon ribbon (dam) barrier system which completely contains and defines a variable surface area. Surface area was varied through the use of a constant rate reversible 3-phase motor to drive the Teflon barrier. A Cahn 2000 electrobalance (Cahn Instruments, Cerittos, Calif.) with a sandblasted 1 cm platinum plate and stainless steel hangdown wire was employed to determine the surface tension at the liquid-air interface. The entire apparatus was situated in a thermostated incubator set at 45° C. Surface area-surface tension measurements were made by adding 950 ml of 0.15 M NaCl to the trough. Subphase temperature was controlled during the measurements at 36°-38° C.
For each experiment 27 ul of peptide/lipid admixture was applied in a random array of 13 (.perspectiveto.2 ul) droplets to the surface of the temperature controlled subphase and allowed to spread spontaneously for 3 minutes. (The 27 ul application corresponds to 675 ug of phospholipid). The trough surface area was then cycled from a maximum (445 sq. cm) to a minimum (178 sq. cm) surface area and black to maximum at a cycling rate of 3 cycles/min (compression ratio 2.5:1). The dynamic surface tension vs surface area was recorded for 7 complete compression-expansion cycles for each application.

Data set [2] in a line: Adsorption (surface tension lowering), modified Wilhelmy surface balance. Conditions: equilibrium adsorption after three (3) minutes spreading time; peptide 0.5 mg/ml (2% of solids). The procedure:
A procedures similar to that described by Notter, et al., Petaitric Res. 16, 515-519, (1982) was employed to determined the absorption rate in the absence of diffusion resistance. The modified Wilhelmy surface balance as described above was used. However, instead of using a Langmuir trough a round Teflon dish (5.1 cm diameter) was employed. The subphase, 70 ml of 0.15 M NaCl, was allowed to equilibrate to 37° C. in the incubator and was continuously stirred with a Teflon coated magnetic stirrer. An aliquot of the peptide/lipid fragment admixture containing 5 mg of total phospholipid was dispersed in 10 ml of 0.15 M NaCl by vortexing for 10 seconds. This dispersion was then added to the saline subphase. Surface tension lowering was monitoring using a strip chart recorder connected to the electro balance output.

Data set [3] can be described thus: Pulsating bubble surfactometer (PBS), surface tension at air-aqueous interface. The following applies: after 5 minutes pulsation (100 cycles), 20 cycles/minute, 37 C, 1 mg/ml phospholipid in 0.15 M NaCl; peptide 2% of phospholipids. The procedure: The Pulsating Bubble Surfactometer (PBS). The PBS equipment (Electrtonetics, Buffalo, N.Y.) used was essentially equivalent to that described in detail by G. Enhorning, J. Appld, Physiol. 43, 198-203, (1977). Recordings were made of the pressure gradient across the wall of a small air bubble, communicating with ambient air by means of a narrow chimney stack, but otherwise entirely surrounded by a 40 ul volume of the peptide/lipid admixture. The admixture concentration employed for these studies was 1 mg/ml total phospholipid (0.02 mg/ml total peptide) and the diluent was 0.15 M naCl. Immediately prior to loading the sample chamber, the diluted samples were sonicated for 15 seconds to remove any gas nuclei.
The pressure drop across the air-water interface was measured during pulsation by a pressure transducer, and the corresponding surface tension determined through the application of Young's law and the Laplace equation. Measurements were all made at 37° C. and the bubble pulsed at 20 cycles/minute to render respectively a maximum (1.1 mm) and a minimum (0.8 mm) bubble diameter. (This compression/expansion corresponds to a 50% change in the surface area of the air-water interface).

The nature of data set [4]: Relative surface activity by dilution studies on modified Wilhelmy balance-Langmuir trough. Conditions: criterion: minimum dynamic surface tension less than 5 dynes/cm for each of seven consecutive cycles; phospholipid 25 mg/ml, 675 ug applied. How it is done: For the purpose of this comparison "surface activity" is defined as follows: For any given peptide concentration, the admixture is required to result in a minimum dynamic surface tension of less than 5 dynes/cm for each of seven consecutive expansion/compression cycles.
The admixtures were diluted with the synthetic lipid mixture as described in Example 4, so as to maintain the lipid concentration in all cases at 25 mg/ml. For these studies a standard volume of 27 ul, corresponding to a total phospholipid mass of 675 ug, was applied to the Langmuir Trough with maximum dimensions of 445 sq. cm.

Several values for one entry are separate records, joined by “and”; a condition that tells them apart may be missing. Equal values may be shown once. No end group written: not given here. Some results are limits rather than exact numbers.

As to “SP-B(1-40): synthesized SP-B peptide fragment, position 1-40, 40 amino acids”, in data set [1], the “Surface tension, Maximum” value is recorded as 48.5 dynes/cm and the “Surface tension, Minimum” value was less than 1 dynes/cm. In data set [2], this molecule showed an Adsorption of 42.5 dynes/cm. For the same molecule, in data set [3], the “Minimum Surface Tension” value came to 7.1 ± 0.41 dyne/cm. For the same molecule, the “Lowest Peptide (Protein) Concentration At Which Surface Active Criteria Are Met” value (“Lowest Peptide” below) in data set [4] is 15.0 ug/ml and 3.3 uM.
“SP-B(1-60): synthesized SP-B peptide fragment, position 1-60, 60 amino acids (FPIPLPYCWLCRALIKRIQAMIPKGALAVAVAQVCRVVPLVAGGICQCLAERYSVILLDT; ends and bridges not checked; cysteine pairing not given here; UniProt P07988 201-260, looked up, fragment)”: in data set [1], the “Surface tension, Maximum” value was 47.5 dynes/cm and the “Surface tension, Minimum” value is given as less than 1 dynes/cm. Besides, the Adsorption in data set [2] was found to be 42.0 dynes/cm. Besides, the “Minimum Surface Tension” value in data set [3] is listed as 7.2 ± 0.26 dyne/cm. In addition, the “Lowest Peptide” value in data set [4] is 125.0 ug/ml and 18.9 uM.
With “SP-B(12-60): synthesized SP-B peptide fragment, position 12-60, 49 amino acids (RALIKRIQAMIPKGALAVAVAQVCRVVPLVAGGICQCLAERYSVILLDT; ends and bridges not checked; cysteine pairing not given here; UniProt P07988 212-260, looked up, fragment)”, in data set [1], the “Surface tension, Maximum” value is 49.0 dynes/cm and the “Surface tension, Minimum” value is recorded as less than 1 dynes/cm. Besides, the Adsorption in data set [2] is 41.0 dynes/cm. Moreover, the “Minimum Surface Tension” value in data set [3] is 10.3 ± 0.67 dyne/cm. Also, the “Lowest Peptide” value in data set [4] was 30.0 ug/ml and 11.4 uM.
In the case of “SP-B(27-78): synthesized SP-B peptide fragment, position 27-78, 52 amino acids (LAVAVAQVCRVVPLVAGGICQCLAERYSVILLDTLLGRMLPQLVCRLVLRCS; ends and bridges not checked; cysteine pairing not given here; UniProt P07988 227-278, looked up, fragment)”, in data set [1], the “Surface tension, Maximum” value amounted to 49.5 dynes/cm and the “Surface tension, Minimum” value is reported as less than 1 dynes/cm. Further, in data set [2], the Adsorption stood at 40.0 dynes/cm. In addition, in data set [3], the “Minimum Surface Tension” value came to 4.7 ± 0.26 dyne/cm. Further, in data set [4], the “Lowest Peptide” value was 30.0 ug/ml and 5.3 uM.
Take “SP-B(30-60): synthesized SP-B peptide fragment, position 30-60 (AVAQVCRVVPLVAGGICQCLAERYSVILLDT; ends and bridges not checked; cysteine pairing not given here; UniProt P07988 230-260, looked up, fragment)”: in data set [1], the “Surface tension, Maximum” value was 52.0 dynes/cm and the “Surface tension, Minimum” value is listed as less than 1 dynes/cm. Also, in data set [2], the Adsorption is on record as 41.0 dynes/cm. For the same molecule, in data set [3], the “Minimum Surface Tension” value is listed as 16.9 ± 0.95 dyne/cm. Further, in data set [4], the “Lowest Peptide” value was 250.0 ug/ml and 76.7 uM.

B1: SP-B(1-78): replica of the entire 78 amino acid residue sequence of the native human SP-B protein (peptide, UniProt P07988 201-279, looked up)
Pulmonary …: FPIPLPYCWLCRALIKRIQAMIPKGALAVAVAQVCRVVPLVAGGICQCLAERYSVILLDTLLGRMLPQLVCRLVLRCSM
modifications: Pulmonary surfactant-associated protein B synthetic
For B1, in data set [1], the “Surface tension, Maximum” value was determined as 44.0 dynes/cm and the “Surface tension, Minimum” value is listed as less than 1 dynes/cm. The molecule further gave an Adsorption in data set [2] of 37.5 dynes/cm. Further, the “Minimum Surface Tension” value in data set [3] is given as 4.0 ± 0.72 dyne/cm. In data set [4], the “Lowest Peptide” value is 15.0 ug/ml and 1.7 uM.
